Laboratory results: article PMC5874051, “Gene cloning of a neutral ceramidase from the sphingolipid metabolic pathway based on transcriptome analysis of Amorphophallus muelleri” (PLoS ONE, 2018)

Substrate: CCCCCCCCCCCCC/C=C/[C@@H](O)[C@H](CO)NC(=O)CCCCCCCCCCCNc1ccc([N+](=O)[O-])c2nonc12
Assay: hydrolysis of NBD-ceramide, reverse-phase HPLC with DAD detector; Michaelis-Menten and Lineweaver-Burk
Format: biochemical, Amorphophallus muelleri
Conditions: 37 °C, 1 h, pH of the kinetic assay not clearly stated, labelled compound

B1: AmCDase (A. muelleri neutral ceramidase) (Amorphophallus muelleri) (protein)
chain: MEASSCSRDYKDHDGSFKIWLCVFLDLVLLNGRLVSRSSDYLVGLASYDITGPAADVNMMGYANAEQIVSGVHFRLRARAFIVAEPGGKRVAFVNLDACMASQLVTIKVLERLKTRYGDLYTAENVAISGIHTHAGPGGYLQYVTYIVTSLGFVRQSFDIIVDGIERSIIQAHDNLRPGSIIVNKGELLDAGVNRSPSAYLNNPYDERKKYSYDVDKEMTLLKFVDDEWGPVGSFNWFATHGTSMSRTNSLISGDNKGAAARFMEDWFKQKSTEPAEHDLFRSDDKLNEIPRRVSIIIPRPRENYKNFTQLASSFPATGGERVTSFLSSTQRVRSIFRQGNRPAFVSAFCQSNCGDVSPNVLGAFCIDTGRPCDFNHSTCNGKNELCYGRGPGYPDEFESTRIIGERQLKKAVDLFDTASEQIKGKVDYRHTYINFSQLKVTIPSSNGSEQVVKTCPAAMGFAFAAGTTDGPGAFDFTQGDEKGNPFWRLVRNLLKTPDKVQVECQLPKPILLDTGEMKQPYDWAPSILPLQILRIGQLVILSVPGEFSTMAGRRLRDAVKMMLTSSGNNEFDNNVHIVIAGLTNTYSQYVTTFEEYEIQRYEGASTLYGPHTLSGYIQEFKKLAAALLNKQTVEPGPAPPDLLKKQMSLLPGVVMDAAPLGFNFGDVSDDVPALSKFKEGDKVSATFWSGCPRNDLLTEGTFALVERLNGVDTWVPAYDDDDFSLRFRWSRPSKFSPYSQATIEWRIPKDAPAGVYRLRHSGATKGLIGCINHFTGTSSAFAVR
notes: Ni-NTA and Superdex 200
Km: 34.51 µM
